Here are results for 6 molecules from article PMC3554631, “Structural Basis of a Histone H3 Lysine 4 Demethylase Required for Stem Elongation in Rice” (PLoS Genetics, 2013).

What is called Kd is the concentration at which binding is half-saturated.

Assay [1] concerns the target FA-J3NCZ, FLAG:HA-tagged JmjN-JmjC-zinc finger region of JMJ703 (amino acids 113 to 700) (rice) (UniProt Q53WJ1). Nature of the assay: SPR; J3NCZ (FA-J3NCZ) with different concentrations of peptide; set-up for this protein not told in the methods. A general note: Surface plasmon resonance follows binding to a sensor surface in real time, without labels.
In assay [2] the target is c-JMJ703, catalytic core domain of JMJ703 (amino acids 139 to 498) (rice) (UniProt Q53WJ1). Nature of the assay: SPR; BIAcore 3000, 25°C; c-JMJ703 amine-coupled to a CM5 chip; peptides injected at various concentrations at 10 µL/min for 2 min in 10 mM HEPES pH 7.5, 150 mM NaCl, 0.005% Tween20; reference flow cell subtracted.
c-JMJ703, catalytic core domain of JMJ703 (amino acids 139 to 498) (rice), sequence (Q53WJ1 139-498): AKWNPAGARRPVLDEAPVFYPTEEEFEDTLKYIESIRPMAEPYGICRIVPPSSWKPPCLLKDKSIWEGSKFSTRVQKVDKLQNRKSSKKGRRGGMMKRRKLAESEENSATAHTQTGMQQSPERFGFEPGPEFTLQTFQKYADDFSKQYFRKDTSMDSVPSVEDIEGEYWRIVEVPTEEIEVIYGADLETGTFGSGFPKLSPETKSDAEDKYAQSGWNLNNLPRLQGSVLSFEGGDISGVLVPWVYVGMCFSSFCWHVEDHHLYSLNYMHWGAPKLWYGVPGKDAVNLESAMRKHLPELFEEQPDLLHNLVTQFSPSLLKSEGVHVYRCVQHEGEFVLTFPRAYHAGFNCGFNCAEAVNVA
Another assay concerns H3K4me1. Nature of the assay: H3K4 demethylation assay in tobacco cells of JMJ703 substitution mutants, H3K4me1. It is filed as cell-based. To be noted: mutant expressed transiently in tobacco cells, immunostaining of nuclei, at least 30 nuclei per transfection.
A further assay concerns H3K4me2. Nature of the assay: H3K4 demethylation assay in tobacco cells of JMJ703 substitution mutants, H3K4me2. The class given is cell-based. To be noted: mutant expressed transiently in tobacco cells, immunostaining of nuclei, at least 30 nuclei per transfection.
The next assay relates to H3K4me3. Nature of the assay: H3K4 demethylation assay in tobacco cells of JMJ703 substitution mutants, H3K4me3. It is filed as cell-based. To be noted: mutant expressed transiently in tobacco cells, immunostaining of nuclei, at least 30 nuclei per transfection.

Take H3K4me2 peptide: the Kd was found to be 15.1 µM in assay [1] and 19.3 µM in assay [2].
The like results for H3K4me1 peptide were, in that order, 12.6 µM and 28.9 µM.
H3K4me0 peptide: the Kd in assay [2] is 76.6 µM.

B1: Y321A: JMJ703 substitution mutant, α-ketoglutaric acid-binding residue (protein, UniProt Q53WJ1 1-1238, looked up, variant Y321A)
Lysine-specific demethylase …: MMGVTTTLNEDTEPSIPPGFGPFATLPLWGIHNDAKPAVTHSTPVQALQSIRKDSEECQPSAAVSRSDTPCSTSGTQTCRKSLRNRPPIDYSRFEHISDEDSDVEIVEKDVSSTRRRQQLPKGVLRGCAECSDCQKVIAKWNPAGARRPVLDEAPVFYPTEEEFEDTLKYIESIRPMAEPYGICRIVPPSSWKPPCLLKDKSIWEGSKFSTRVQKVDKLQNRKSSKKGRRGGMMKRRKLAESEENSATAHTQTGMQQSPERFGFEPGPEFTLQTFQKYADDFSKQYFRKDTSMDSVPSVEDIEGEYWRIVEVPTEEIEVIAGADLETGTFGSGFPKLSPETKSDAEDKYAQSGWNLNNLPRLQGSVLSFEGGDISGVLVPWVYVGMCFSSFCWHVEDHHLYSLNYMHWGAPKLWYGVPGKDAVNLESAMRKHLPELFEEQPDLLHNLVTQFSPSLLKSEGVHVYRCVQHEGEFVLTFPRAYHAGFNCGFNCAEAVNVAPIDWLPIGHNAVELYREQARKITISHDKLLLGAAREAIRAQWDILFLKRNTADNMRWKSICGADSTIFKALKARIETELVQRKTLGVPAQSRKMDAEFDSIDRECALCYYDLHLSASGCPCCPEKYACLVHAKQLCSCDWDKRFFLFRYDVNELNILADALGGKLSAIHRWGVSDLGLSLSSCVKREKVQDSKTVRRLTDGPRRSYMSQASAVSLVSSSTSNEQKDEGNKIMKIASPQTNNVCPSVEQRKSENISPLKEPCVRNELSCTTNSDSNGLQYNGGLGGHKGSAPGLPVSSSPSFSSNVATRPISTSSVSMKIVQGLVASKSCIQASSRTGDSRSLLGEHHNRSPAMIHDGTNMKSSLESSNNSCRLIASDYNATPCHSSKDQVLVTPGTNASVVTLKDSSQVHSASSQQFVRTGPWTQSASHEASSPSTSALKPSLDPPAMKNLYGGFTQGSAHPGPPSFSNQQPNDGRLQRTSESLPGVEARARGHPTVTAQPALEIHSRNGGAQKGPRIANVVHRFKCSVEPLEIGVVLSGRLWSSSQAIFPKGFRSRVKYFSIVDPIQMAYYISEILDAGMQGPLFMVKLENCPGEVFINLSPTKCWNMVRERLNMEIRRQLNMGKSNLPTLQPPGSVDGLEMFGLLSPPIVQAIWARDRDHICTEYWRSRPHVLIEDPNNRHMLSQGPPLLALRGLIQRANRDELQVLRSLMTNSNNLDDSSRQQAAHIIEEEIAKQLC
Take B1: in the assay with H3K4me1, the H3K4me1 demethylation activity entry is given as “no”. The H3K4me2 demethylation activity entry in the assay on H3K4me2 is reported as “yes”. For the same molecule, the H3K4me3 demethylation activity result in the assay on H3K4me3 is “yes”.

B2: K412A: JMJ703 substitution mutant, α-ketoglutaric acid-binding residue (protein, UniProt Q53WJ1 1-1238, looked up, variant K412A)
Lysine-specific demethylase …: MMGVTTTLNEDTEPSIPPGFGPFATLPLWGIHNDAKPAVTHSTPVQALQSIRKDSEECQPSAAVSRSDTPCSTSGTQTCRKSLRNRPPIDYSRFEHISDEDSDVEIVEKDVSSTRRRQQLPKGVLRGCAECSDCQKVIAKWNPAGARRPVLDEAPVFYPTEEEFEDTLKYIESIRPMAEPYGICRIVPPSSWKPPCLLKDKSIWEGSKFSTRVQKVDKLQNRKSSKKGRRGGMMKRRKLAESEENSATAHTQTGMQQSPERFGFEPGPEFTLQTFQKYADDFSKQYFRKDTSMDSVPSVEDIEGEYWRIVEVPTEEIEVIYGADLETGTFGSGFPKLSPETKSDAEDKYAQSGWNLNNLPRLQGSVLSFEGGDISGVLVPWVYVGMCFSSFCWHVEDHHLYSLNYMHWGAPALWYGVPGKDAVNLESAMRKHLPELFEEQPDLLHNLVTQFSPSLLKSEGVHVYRCVQHEGEFVLTFPRAYHAGFNCGFNCAEAVNVAPIDWLPIGHNAVELYREQARKITISHDKLLLGAAREAIRAQWDILFLKRNTADNMRWKSICGADSTIFKALKARIETELVQRKTLGVPAQSRKMDAEFDSIDRECALCYYDLHLSASGCPCCPEKYACLVHAKQLCSCDWDKRFFLFRYDVNELNILADALGGKLSAIHRWGVSDLGLSLSSCVKREKVQDSKTVRRLTDGPRRSYMSQASAVSLVSSSTSNEQKDEGNKIMKIASPQTNNVCPSVEQRKSENISPLKEPCVRNELSCTTNSDSNGLQYNGGLGGHKGSAPGLPVSSSPSFSSNVATRPISTSSVSMKIVQGLVASKSCIQASSRTGDSRSLLGEHHNRSPAMIHDGTNMKSSLESSNNSCRLIASDYNATPCHSSKDQVLVTPGTNASVVTLKDSSQVHSASSQQFVRTGPWTQSASHEASSPSTSALKPSLDPPAMKNLYGGFTQGSAHPGPPSFSNQQPNDGRLQRTSESLPGVEARARGHPTVTAQPALEIHSRNGGAQKGPRIANVVHRFKCSVEPLEIGVVLSGRLWSSSQAIFPKGFRSRVKYFSIVDPIQMAYYISEILDAGMQGPLFMVKLENCPGEVFINLSPTKCWNMVRERLNMEIRRQLNMGKSNLPTLQPPGSVDGLEMFGLLSPPIVQAIWARDRDHICTEYWRSRPHVLIEDPNNRHMLSQGPPLLALRGLIQRANRDELQVLRSLMTNSNNLDDSSRQQAAHIIEEEIAKQLC
Regarding B2, the H3K4me1 demethylation activity result in the assay on H3K4me1 is given as “no”. The H3K4me2 demethylation activity result with H3K4me2 is recorded as “no”. Also, in the assay with H3K4me3, the H3K4me3 demethylation activity result was “no”.

B3: N404A: JMJ703 substitution mutant, α-ketoglutaric acid-binding residue (protein, UniProt Q53WJ1 1-1238, looked up, variant N404A)
Lysine-specific demethylase …: MMGVTTTLNEDTEPSIPPGFGPFATLPLWGIHNDAKPAVTHSTPVQALQSIRKDSEECQPSAAVSRSDTPCSTSGTQTCRKSLRNRPPIDYSRFEHISDEDSDVEIVEKDVSSTRRRQQLPKGVLRGCAECSDCQKVIAKWNPAGARRPVLDEAPVFYPTEEEFEDTLKYIESIRPMAEPYGICRIVPPSSWKPPCLLKDKSIWEGSKFSTRVQKVDKLQNRKSSKKGRRGGMMKRRKLAESEENSATAHTQTGMQQSPERFGFEPGPEFTLQTFQKYADDFSKQYFRKDTSMDSVPSVEDIEGEYWRIVEVPTEEIEVIYGADLETGTFGSGFPKLSPETKSDAEDKYAQSGWNLNNLPRLQGSVLSFEGGDISGVLVPWVYVGMCFSSFCWHVEDHHLYSLAYMHWGAPKLWYGVPGKDAVNLESAMRKHLPELFEEQPDLLHNLVTQFSPSLLKSEGVHVYRCVQHEGEFVLTFPRAYHAGFNCGFNCAEAVNVAPIDWLPIGHNAVELYREQARKITISHDKLLLGAAREAIRAQWDILFLKRNTADNMRWKSICGADSTIFKALKARIETELVQRKTLGVPAQSRKMDAEFDSIDRECALCYYDLHLSASGCPCCPEKYACLVHAKQLCSCDWDKRFFLFRYDVNELNILADALGGKLSAIHRWGVSDLGLSLSSCVKREKVQDSKTVRRLTDGPRRSYMSQASAVSLVSSSTSNEQKDEGNKIMKIASPQTNNVCPSVEQRKSENISPLKEPCVRNELSCTTNSDSNGLQYNGGLGGHKGSAPGLPVSSSPSFSSNVATRPISTSSVSMKIVQGLVASKSCIQASSRTGDSRSLLGEHHNRSPAMIHDGTNMKSSLESSNNSCRLIASDYNATPCHSSKDQVLVTPGTNASVVTLKDSSQVHSASSQQFVRTGPWTQSASHEASSPSTSALKPSLDPPAMKNLYGGFTQGSAHPGPPSFSNQQPNDGRLQRTSESLPGVEARARGHPTVTAQPALEIHSRNGGAQKGPRIANVVHRFKCSVEPLEIGVVLSGRLWSSSQAIFPKGFRSRVKYFSIVDPIQMAYYISEILDAGMQGPLFMVKLENCPGEVFINLSPTKCWNMVRERLNMEIRRQLNMGKSNLPTLQPPGSVDGLEMFGLLSPPIVQAIWARDRDHICTEYWRSRPHVLIEDPNNRHMLSQGPPLLALRGLIQRANRDELQVLRSLMTNSNNLDDSSRQQAAHIIEEEIAKQLC
Turning to B3, the H3K4me1 demethylation activity entry in the assay on H3K4me1 was “yes”. Also, in the assay on H3K4me2, the H3K4me2 demethylation activity entry is reported as “yes”. Besides, the H3K4me3 demethylation activity entry in the assay on H3K4me3 is given as “yes”.
